Assay [1] deals with FcRn (neonatal Fc receptor). Briefly: FcRn affinity chromatography, pH gradient elution; retention time compared to protein standards with known affinities. On the procedure: FcRn was expressed, purified and biotinylated as described (Schlothauer et al., MAbs (2013) 5(4), 576-86). For coupling, the prepared receptor was added to streptavidin-sepharose (GE Healthcare). The resulting FcRn-sepharose matrix was packed in a column housing. The column was equilibrated with 20 mM 2-(N-morpholine)-ethanesulfonic acid (MES), 140 mM NaCl, pH 5.5 (eluent A) at a 0.5 ml/min flow rate. 30 μg of antibody samples were diluted at a volume ratio of 1:1 with eluent A and applied to the FcRn column. The column was washed with 5 column volumes of eluent A followed by elution with a linear gradient from 20 to 100% 20 mM Tris/HCl, 140 mM NaCl, pH 8.8 (eluent B) in 35 column volumes. The analysis was performed with a column oven at 25° C. The elution profile was monitored by continuous measurement of the absorbance at 280 nm. Retention times were compared to protein standards with known affinities.

In assay [2] the target is T1, human STEAP-1 (six-transmembrane epithelial antigen of prostate 1) (human, UniProt Q9UHE8 1-339).
T1 construct: Full-length human STEAP1 stably expressed on CHO-K1 cells (CHO-hSTEAP1); endogenous on LnCAP and 22Rv1 cells in the functional assays; also called hSTEAP-1
The assay is described as follows: cell-based ELISA on CHO-K1 cells stably expressing human STEAP1; binding EC50 of the stressed sample against the untreated sample x100. On the procedure: Characterization of Binding Potency After Stress Using a Cell-Based ELISA To quantify the reduction in binding potency caused by 1-4 weeks stress at either pH 7.4 or 6.0, a cell-based ELISA was employed using CHO-K1 cells stably expressing human STEAP1. For this cell-based ELISA, 10,000 cells were seeded per well of a 96-well plate and incubated for 18 h at 37° C., 5% CO₂. Supernatant was removed using an automated washer (BIOTEK), and 100 μl of a dilution series (10 pM-30 nM) of antibody constructs in growth medium was added to each well. After 1 h of incubation at 4° C., wells were emptied and 100 μl of 0.05% glutaraldehyde in PBS added for 10 min at RT. After 4 washes with PBS/0.025% Tween20 (PBST), 100 μl of anti-human-IgG-HRP (Jackson) diluted 1:20000 in Blocking buffer (Roche) was added and plates incubated for 1 h at room temperature (RT). Wells were washed 6 times with PBST and signal was generated using 100 μl of TMB per well, the reaction stopped after 10 minutes with 50 μl 1 M HCl and absorbance measured at 450 nm. Data (Table 4) were expressed as “% binding”, dividing the binding EC50 of the stressed sample by that of the untreated sample multiplied by 100.
Background: An ELISA detects its analyte on a solid surface through an enzyme-linked reagent.

Assay [3] deals with T1, human STEAP-1 (six-transmembrane …). The assay is described as follows: flow cytometry on CHO-K1 cells stably transfected with full-length human STEAP1, PerCP anti-human IgG secondary. The source says:
A gene encoding full-length human STEAP1 was subcloned into mammalian expression vector. The plasmid was transfected into CHO-K1 (ATCC CRL-9618) cells using Lipofectamine LTX Reagent according to the manufacturer's protocol (Invitrogen, #15338100). Stably transfected STEAP1-positive CHO cells were maintained in DMEM/F-12 medium (Gibco, #11320033) supplemented with 10% fetal bovine serum (Gibco, #16140063) and 1% GlutaMAX Supplement (Gibco; #31331-028). Two days after transfection, puromycin (Invivogen; #ant-pr-1) was added to 6 μg/mL and the cells were cultured for several passages. After initial selection, the cells with the highest cell surface expression of STEAP1 were sorted by BD FACSAria II cell sorter (BD Biosciences) and cultured to establish stable cell clones. The expression level and stability was confirmed by FACS analysis using vandortuzumab and PerCP-conjugated Fc gamma-specific goat anti-human IgG (Jackson ImmunoResearch, #109-126-097) as secondary antibody over a period of 4 weeks.
(In general: Flow cytometry measures light scatter and fluorescence of single cells or particles in a stream.)

FcRn (neonatal Fc receptor), sequence (P55899 24-297, chain 1 of 2): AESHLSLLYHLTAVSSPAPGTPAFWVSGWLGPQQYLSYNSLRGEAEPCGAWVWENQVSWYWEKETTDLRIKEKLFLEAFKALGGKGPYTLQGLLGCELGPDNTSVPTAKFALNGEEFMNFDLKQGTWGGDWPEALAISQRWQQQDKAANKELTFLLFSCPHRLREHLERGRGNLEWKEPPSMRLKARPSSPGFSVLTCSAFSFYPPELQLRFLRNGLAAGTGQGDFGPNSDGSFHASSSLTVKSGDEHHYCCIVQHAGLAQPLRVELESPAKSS
FcRn (neonatal Fc receptor), sequence (P61769 21-119, chain 2 of 2, further chain): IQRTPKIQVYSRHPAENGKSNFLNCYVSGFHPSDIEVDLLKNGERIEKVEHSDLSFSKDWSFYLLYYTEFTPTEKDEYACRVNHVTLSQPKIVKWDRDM
T1 sequence (Q9UHE8 whole entry): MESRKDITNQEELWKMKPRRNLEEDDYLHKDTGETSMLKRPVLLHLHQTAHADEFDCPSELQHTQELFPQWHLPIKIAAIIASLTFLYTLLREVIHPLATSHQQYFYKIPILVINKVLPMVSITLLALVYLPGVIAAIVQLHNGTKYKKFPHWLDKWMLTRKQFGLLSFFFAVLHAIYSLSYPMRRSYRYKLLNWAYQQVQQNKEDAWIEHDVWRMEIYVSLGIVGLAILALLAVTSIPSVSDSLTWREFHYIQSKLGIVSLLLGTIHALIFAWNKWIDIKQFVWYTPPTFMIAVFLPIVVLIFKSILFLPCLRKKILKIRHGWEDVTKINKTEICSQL

B1: Molecule A: 2+1 IgG CrossFab inverted anti-STEAP1/anti-CD3 T cell bispecific (TCB) antibody with the vandortuzumab variable domains (bispecific antibody)
heavy 1: EVQLVESGGGLVQPGGSLRLSCAVSGYSITSDYAWNWVRQAPGKGLEWVGYISNSGSTSYNPSLKSRFTISRDTSKNTLYLQMNSLRAEDTAVYYCARERNYDYDDYYYAMDYWGQGTLVTVSSASTKGPSVFPLAPSSKSTSGGTAALGCLVEDYFPEPVTVSWNSGALTSGVHTFPAVLQSSGLYSLSSVVTVPSSSLGTQTYICNVNHKPSNTKVDEKVEPKSCDKTHTCPPCPAPEAAGGPSVFLFPPKPKDTLMISRTPEVTCVVVDVSHEDPEVKFNWYVDGVEVHNAKTKPREEQYNSTYRVVSVLTVLHQDWLNGKEYKCKVSNKALGAPIEKTISKAKGQPREPQVCTLPPSRDELTKNQVSLSCAVKGFYPSDIAVEWESNGQPENNYKTTPPVLDSDGSFFLVSKLTVDKSRWQQGNVFSCSVMHEALHNHYTQKSLSLSP
heavy 2: not shown
light 1: DIQMTQSPSSLSASVGDRVTITCKSSQSLLYRSNQKNYLAWYQQKPGKAPKLLIYWASTRESGVPSRFSGSGSGTDFTLTISSLQPEDFATYYCQQYYNYPRTFGQGTKVEIKRTVAAPSVFIFPPSDRKLKSGTASVVCLLNNFYPREAKVQWKVDNALQSGNSQESVTEQDSKDSTYSLSSTLTLSKADYEKHKVYACEVTHQGLSSPVTKSFNRGEC
light 2: EVQLLESGGGLVQPGGSLRLSCAASGFTFSTYAMNWVRQAPGKGLEWVSRIRSKYNNYATYYADSVKGRFTISRDDSKNTLYLQMNSLRAEDTAVYYCVRHGNFGNSYVSWFAYWGQGTLVTVSSASVAAPSVFIFPPSDEQLKSGTASVVCLLNNFYPREAKVQWKVDNALQSGNSQESVTEQDSKDSTYSLSSTLTLSKADYEKHKVYACEVTHQGLSSPVTKSFNRGEC
notes: Two STEAP1 Fabs (charge modifications EE/RK) and one CD3 CrossFab (VH/VL exchange), human IgG1 Fc with knob-into-hole and PGLALA; also called STEAP-1 TCB antibody
B1 returned a FcRn affinity in assay [1] of 0.61. Moreover, the “Relative binding potency (%) (after 28 days at 40° C., pH 6)” value (“Relative binding potency (%)” below) in assay [2] came out at 66%.

B2: Molecule C: 2+1 IgG CrossFab inverted anti-STEAP1/anti-CD3 TCB antibody, D100bE mutation in both STEAP1 binding moieties (bispecific antibody)
heavy 1: EVQLVESGGGLVQPGGSLRLSCAVSGYSITSDYAWNWVRQAPGKGLEWVGYISNSGSTSYNPSLKSRFTISRDTSKNTLYLQMNSLRAEDTAVYYCARERNYDYDEYYYAMDYWGQGTLVTVSSASTKGPSVFPLAPSSKSTSGGTAALGCLVEDYFPEPVTVSWNSGALTSGVHTFPAVLQSSGLYSLSSVVTVPSSSLGTQTYICNVNHKPSNTKVDEKVEPKSCDKTHTCPPCPAPEAAGGPSVFLFPPKPKDTLMISRTPEVTCVVVDVSHEDPEVKFNWYVDGVEVHNAKTKPREEQYNSTYRVVSVLTVLHQDWLNGKEYKCKVSNKALGAPIEKTISKAKGQPREPQVCTLPPSRDELTKNQVSLSCAVKGFYPSDIAVEWESNGQPENNYKTTPPVLDSDGSFFLVSKLTVDKSRWQQGNVFSCSVMHEALHNHYTQKSLSLSP
heavy 2: not shown
light 1: DIQMTQSPSSLSASVGDRVTITCKSSQSLLYRSNQKNYLAWYQQKPGKAPKLLIYWASTRESGVPSRFSGSGSGTDFTLTISSLQPEDFATYYCQQYYNYPRTFGQGTKVEIKRTVAAPSVFIFPPSDRKLKSGTASVVCLLNNFYPREAKVQWKVDNALQSGNSQESVTEQDSKDSTYSLSSTLTLSKADYEKHKVYACEVTHQGLSSPVTKSFNRGEC
light 2: EVQLLESGGGLVQPGGSLRLSCAASGFTFSTYAMNWVRQAPGKGLEWVSRIRSKYNNYATYYADSVKGRFTISRDDSKNTLYLQMNSLRAEDTAVYYCVRHGNFGNSYVSWFAYWGQGTLVTVSSASVAAPSVFIFPPSDEQLKSGTASVVCLLNNFYPREAKVQWKVDNALQSGNSQESVTEQDSKDSTYSLSSTLTLSKADYEKHKVYACEVTHQGLSSPVTKSFNRGEC
notes: Same format as Molecule A; also called STEAP-1 TCB antibody variant (DE)
For B2, the “Relative binding potency (%)” value in assay [2] is 69%.

B3: Molecule B: 2+1 IgG CrossFab inverted anti-STEAP1/anti-CD3 TCB antibody, D100aE mutation in both STEAP1 binding moieties (bispecific antibody)
heavy 1: EVQLVESGGGLVQPGGSLRLSCAVSGYSITSDYAWNWVRQAPGKGLEWVGYISNSGSTSYNPSLKSRFTISRDTSKNTLYLQMNSLRAEDTAVYYCARERNYDYEDYYYAMDYWGQGTLVTVSSASTKGPSVFPLAPSSKSTSGGTAALGCLVEDYFPEPVTVSWNSGALTSGVHTFPAVLQSSGLYSLSSVVTVPSSSLGTQTYICNVNHKPSNTKVDEKVEPKSCDKTHTCPPCPAPEAAGGPSVFLFPPKPKDTLMISRTPEVTCVVVDVSHEDPEVKFNWYVDGVEVHNAKTKPREEQYNSTYRVVSVLTVLHQDWLNGKEYKCKVSNKALGAPIEKTISKAKGQPREPQVCTLPPSRDELTKNQVSLSCAVKGFYPSDIAVEWESNGQPENNYKTTPPVLDSDGSFFLVSKLTVDKSRWQQGNVFSCSVMHEALHNHYTQKSLSLSP
heavy 2: not shown
light 1: DIQMTQSPSSLSASVGDRVTITCKSSQSLLYRSNQKNYLAWYQQKPGKAPKLLIYWASTRESGVPSRFSGSGSGTDFTLTISSLQPEDFATYYCQQYYNYPRTFGQGTKVEIKRTVAAPSVFIFPPSDRKLKSGTASVVCLLNNFYPREAKVQWKVDNALQSGNSQESVTEQDSKDSTYSLSSTLTLSKADYEKHKVYACEVTHQGLSSPVTKSFNRGEC
light 2: EVQLLESGGGLVQPGGSLRLSCAASGFTFSTYAMNWVRQAPGKGLEWVSRIRSKYNNYATYYADSVKGRFTISRDDSKNTLYLQMNSLRAEDTAVYYCVRHGNFGNSYVSWFAYWGQGTLVTVSSASVAAPSVFIFPPSDEQLKSGTASVVCLLNNFYPREAKVQWKVDNALQSGNSQESVTEQDSKDSTYSLSSTLTLSKADYEKHKVYACEVTHQGLSSPVTKSFNRGEC
notes: Same format as Molecule A; also called STEAP-1 TCB antibody variant (ED)
For B3, in assay [1], the FcRn affinity amounted to 0.69. Besides, the “Relative binding potency (%)” value in assay [2] stood at 79%.

B4: Molecule D: 2+1 IgG CrossFab inverted anti-STEAP1/anti-CD3 TCB antibody, D100aE/D100bE mutations in both STEAP1 binding moieties (bispecific antibody)
heavy 1: EVQLVESGGGLVQPGGSLRLSCAVSGYSITSDYAWNWVRQAPGKGLEWVGYISNSGSTSYNPSLKSRFTISRDTSKNTLYLQMNSLRAEDTAVYYCARERNYDYEEYYYAMDYWGQGTLVTVSSASTKGPSVFPLAPSSKSTSGGTAALGCLVEDYFPEPVTVSWNSGALTSGVHTFPAVLQSSGLYSLSSVVTVPSSSLGTQTYICNVNHKPSNTKVDEKVEPKSCDKTHTCPPCPAPEAAGGPSVFLFPPKPKDTLMISRTPEVTCVVVDVSHEDPEVKFNWYVDGVEVHNAKTKPREEQYNSTYRVVSVLTVLHQDWLNGKEYKCKVSNKALGAPIEKTISKAKGQPREPQVCTLPPSRDELTKNQVSLSCAVKGFYPSDIAVEWESNGQPENNYKTTPPVLDSDGSFFLVSKLTVDKSRWQQGNVFSCSVMHEALHNHYTQKSLSLSP
heavy 2: not shown
light 1: DIQMTQSPSSLSASVGDRVTITCKSSQSLLYRSNQKNYLAWYQQKPGKAPKLLIYWASTRESGVPSRFSGSGSGTDFTLTISSLQPEDFATYYCQQYYNYPRTFGQGTKVEIKRTVAAPSVFIFPPSDRKLKSGTASVVCLLNNFYPREAKVQWKVDNALQSGNSQESVTEQDSKDSTYSLSSTLTLSKADYEKHKVYACEVTHQGLSSPVTKSFNRGEC
light 2: EVQLLESGGGLVQPGGSLRLSCAASGFTFSTYAMNWVRQAPGKGLEWVSRIRSKYNNYATYYADSVKGRFTISRDDSKNTLYLQMNSLRAEDTAVYYCVRHGNFGNSYVSWFAYWGQGTLVTVSSASVAAPSVFIFPPSDEQLKSGTASVVCLLNNFYPREAKVQWKVDNALQSGNSQESVTEQDSKDSTYSLSSTLTLSKADYEKHKVYACEVTHQGLSSPVTKSFNRGEC
notes: Same format as Molecule A; also called STEAP-1 TCB antibody variant (EE)
In assay [1], B4 gave a FcRn affinity of 0.65. Further, the “Relative binding potency (%)” value in assay [2] stood at 100%.

B5: vandortuzumab (antibody, V domains shown)
VH: EVQLVESGGGLVQPGGSLRLSCAVSGYSITSDYAWNWVRQAPGKGLEWVGYISNSGSTSYNPSLKSRFTISRDTSKNTLYLQMNSLRAEDTAVYYCARERNYDYDDYYYAMDYWGQGTLVTVSS
VL: DIQMTQSPSSLSASVGDRVTITCKSSQSLLYRSNQKNYLAWYQQKPGKAPKLLIYWASTRESGVPSRFSGSGSGTDFTLTISSLQPEDFATYYCQQYYNYPRTFGQGTKVEIK
Take B5: the binding result in assay [3] is reported as “binds”.

The values are drawn from patent US20240279355A1 (Hoffmann-La Roche, published 2024).
